B1: PfRH5 (reticulocyte-binding protein homolog 5): v3.0 (four Asn to Gln) (protein)
parent chain: MIRIKKKLILTIIYIHLFILNRLSFENAIKKTKNQENNLTLLPIKSTEEEKDDIKNGKDIKKEIDNDKENIKTNNAKDHSTYIKSYLNTNVNDGLKYLFIPSHNSFIKKYSVFNQINDGMLLNEKNDVKNNEDYKNVDYKNVNFLQYHFKELSNYNIANSIDILQEKEGHLDFVIIPHYTFLDYYKHLSYNSIYHKSSTYGKCIAVDAFIKKINETYDKVKSKCNDIKNDLIATIKKLEHPYDINNKNDDSYRYDISEEIDDKSEETDDETEEVEDSIQDTDSNHTPSNKKKNDLMNRTFKKMMDEYNTKKKKLIKCIKNHENDFNKICMDMKNYGTNLFEQLSCYNNNFCNTNGIRYHYDEYIHKLILSVKSKNLNKDLSDMTNILQQSELLLTNLNKKMGSYIYIDTIKFIHKEMKHIFNRIEYHTKIINDKTKIIQDKIKLNIWRTFQKDELLKRILDMSNEYSLFITSDHLRQMLYNTFYSKEKHLNNIFHHLIYVLQMKFNDVPIKMEYFQTYKKNKPLTQ
B2: PfRH5 (reticulocyte-binding protein homolog 5): v4.0 (N38Q and N214Q) (protein)
parent chain: MIRIKKKLILTIIYIHLFILNRLSFENAIKKTKNQENNLTLLPIKSTEEEKDDIKNGKDIKKEIDNDKENIKTNNAKDHSTYIKSYLNTNVNDGLKYLFIPSHNSFIKKYSVFNQINDGMLLNEKNDVKNNEDYKNVDYKNVNFLQYHFKELSNYNIANSIDILQEKEGHLDFVIIPHYTFLDYYKHLSYNSIYHKSSTYGKCIAVDAFIKKINETYDKVKSKCNDIKNDLIATIKKLEHPYDINNKNDDSYRYDISEEIDDKSEETDDETEEVEDSIQDTDSNHTPSNKKKNDLMNRTFKKMMDEYNTKKKKLIKCIKNHENDFNKICMDMKNYGTNLFEQLSCYNNNFCNTNGIRYHYDEYIHKLILSVKSKNLNKDLSDMTNILQQSELLLTNLNKKMGSYIYIDTIKFIHKEMKHIFNRIEYHTKIINDKTKIIQDKIKLNIWRTFQKDELLKRILDMSNEYSLFITSDHLRQMLYNTFYSKEKHLNNIFHHLIYVLQMKFNDVPIKMEYFQTYKKNKPLTQ
B3: PfRH5 (reticulocyte-binding protein homolog 5): v2.0 (four Thr to Ala) (protein)
parent chain: MIRIKKKLILTIIYIHLFILNRLSFENAIKKTKNQENNLTLLPIKSTEEEKDDIKNGKDIKKEIDNDKENIKTNNAKDHSTYIKSYLNTNVNDGLKYLFIPSHNSFIKKYSVFNQINDGMLLNEKNDVKNNEDYKNVDYKNVNFLQYHFKELSNYNIANSIDILQEKEGHLDFVIIPHYTFLDYYKHLSYNSIYHKSSTYGKCIAVDAFIKKINETYDKVKSKCNDIKNDLIATIKKLEHPYDINNKNDDSYRYDISEEIDDKSEETDDETEEVEDSIQDTDSNHTPSNKKKNDLMNRTFKKMMDEYNTKKKKLIKCIKNHENDFNKICMDMKNYGTNLFEQLSCYNNNFCNTNGIRYHYDEYIHKLILSVKSKNLNKDLSDMTNILQQSELLLTNLNKKMGSYIYIDTIKFIHKEMKHIFNRIEYHTKIINDKTKIIQDKIKLNIWRTFQKDELLKRILDMSNEYSLFITSDHLRQMLYNTFYSKEKHLNNIFHHLIYVLQMKFNDVPIKMEYFQTYKKNKPLTQ

Experiments:
basigin (Homo sapiens) = basigin (Homo sapiens) (UniProt P35613); test: SPR; settings: cited from earlier work
[1] = rabbit serum anti-PfRH5 v2.0 IgG ELISA; settings: glycan lost; control: v5.0 (native sequons, glycosylated)
[2] = single-cycle GIA with purified rabbit total IgG; settings: glycan lost; control: v5.0 (native sequons, glycosylated)
[3] = GIA versus anti-PfRH5 IgG concentration, fitted curves; settings: glycan lost; control: v5.0 (native sequons, glycosylated)

Chain of basigin (Homo sapiens) (P35613 22-325): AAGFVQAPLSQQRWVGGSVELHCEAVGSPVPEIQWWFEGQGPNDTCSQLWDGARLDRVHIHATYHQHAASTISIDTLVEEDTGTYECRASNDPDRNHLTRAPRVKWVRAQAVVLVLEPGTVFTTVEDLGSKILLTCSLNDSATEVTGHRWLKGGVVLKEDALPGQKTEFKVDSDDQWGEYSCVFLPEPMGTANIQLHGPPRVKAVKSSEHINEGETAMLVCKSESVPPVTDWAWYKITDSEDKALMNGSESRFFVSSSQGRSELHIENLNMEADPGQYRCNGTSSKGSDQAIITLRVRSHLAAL

Row | Molecule | Kd (basigin (Homo sapiens)) [µM] | other: immunogenicity, other: median PfRH5-specific IgG [1] | other: immunogenicity (growth inhibition by induced IgG), EC50 [2] | other: immunogenicity (antibody quality, GIA per antigen-specific IgG), EC50 [3]
1 | PfRH5 (from UniProt Q8IFM5) | 1.5 |  |  | 
2 | B1 |  | increases, 535 vs 40 | increases, 8.4 vs >10 | 
3 | B2 |  | increases, 116 vs 40 | no change, >10 vs >10 | 
4 | B3 |  | increases, 278 vs 40 | increases, 4 vs >10 | no change, median EC50 of 129 μg/mL (95% CI 80.7–186.7 μg/mL) anti-PfRH5 IgG
